Data published in article PMC2839365 (Biochemical and biophysical research communications, 2010).
Read-outs that look alike come from different tables or passages of the source.

Assays:
Assay in all cases: ITC
βI14-15 T1788A [1] = target: βI14-15 T1788A
βI14-15 T1788A [2] = target: βI14-15 T1788A; remark: listed apart in the source
βI14-15 Y1866A = target: βI14-15 Y1866A
βI14-15 A1867P = target: βI14-15 A1867P
[3] = target: wild type βI-spectrin 14-15 di-repeat
βI14-15 D1700A = target: βI14-15 D1700A
βI14-15 D1701A = target: βI14-15 D1701A
βI14-15 E1703A = target: βI14-15 E1703A
βI14-15 E1708A = target: βI14-15 E1708A
βI14-15 E1710A = target: βI14-15 E1710A
βI14-15 D1781A = target: βI14-15 D1781A
βI14-15 E1784A = target: βI14-15 E1784A

Kd (βI14-15 T1788A [1]): 5.8 µM
Kd (βI14-15 T1788A [2]): 5.73 µM
Kd (βI14-15 Y1866A): 22 µM
Kd (βI14-15 A1867P): 14.9 µM
Kd [3]: 190 nM
Kd (βI14-15 D1700A): 440 nM
Kd (βI14-15 D1701A): 360 nM
Kd (βI14-15 E1703A): 320 nM
Kd (βI14-15 E1708A): 430 nM
Kd (βI14-15 E1710A): 1700 nM
Kd (βI14-15 D1781A): 2100 nM
Kd (βI14-15 E1784A): 43.4 µM
B1: ZU5 domain of ankyrin (domain or fragment)
chain: FLVSFMVDARGGSMRGSRHNGLRVVIPPRTCAAPTRITCRLVKPQKLSTPPPLAEEEGLASRIIALGPTGAQFLSPVIVEIPHFASHGRGDRELVVLRSENGSVWKEHRSRYGESYLDQILNGMDEELGSLEELEKKRVCRIITTDFPLYFVIMSR
